The target of this test is PSI–LHCI as found in the chloroplast PSI–LHCI dimer (one monomer unit, without PsaH, PsaO and Lhca2) (Chlamydomonas reinhardtii) (UniProt P12154). In words: cryo-EM structure; heavier green band of the sucrose gradient of affinity-purified PSI cross-linked with activated Pc; 1 mg chlorophyll/ml, vitrified at 4 °C; dimer refined with C2 symmetry, monomer with C1, focused classification on the Pc region.

Broadly, the stoichiometry N is a count of units in the complex or per binding partner. Regarding “PSI–LHCI as found in the chloroplast PSI–LHCI dimer (one monomer unit, without PsaH, PsaO and Lhca2) (from UniProt P12154 1-751; P09144 1-735; Q39615 36-196; P12352 25-97; P12356 63-227; P14224 31-126; P14225 27-113) (complex)”, the stoichiometry N was 2.

Source of the values: article PMC9579051.
